Reference: paper PMC4738285 (Scientific Reports, 2016)

Target: T1, recombinant human Hsp70 (human, UniProt P0DMV8 1-641)
T1 construct: also called stress-inducible chaperone Hsp70
Experiment: other fluorescence titration
Conditions: both partners purified

T1 sequence (P0DMV8 whole entry): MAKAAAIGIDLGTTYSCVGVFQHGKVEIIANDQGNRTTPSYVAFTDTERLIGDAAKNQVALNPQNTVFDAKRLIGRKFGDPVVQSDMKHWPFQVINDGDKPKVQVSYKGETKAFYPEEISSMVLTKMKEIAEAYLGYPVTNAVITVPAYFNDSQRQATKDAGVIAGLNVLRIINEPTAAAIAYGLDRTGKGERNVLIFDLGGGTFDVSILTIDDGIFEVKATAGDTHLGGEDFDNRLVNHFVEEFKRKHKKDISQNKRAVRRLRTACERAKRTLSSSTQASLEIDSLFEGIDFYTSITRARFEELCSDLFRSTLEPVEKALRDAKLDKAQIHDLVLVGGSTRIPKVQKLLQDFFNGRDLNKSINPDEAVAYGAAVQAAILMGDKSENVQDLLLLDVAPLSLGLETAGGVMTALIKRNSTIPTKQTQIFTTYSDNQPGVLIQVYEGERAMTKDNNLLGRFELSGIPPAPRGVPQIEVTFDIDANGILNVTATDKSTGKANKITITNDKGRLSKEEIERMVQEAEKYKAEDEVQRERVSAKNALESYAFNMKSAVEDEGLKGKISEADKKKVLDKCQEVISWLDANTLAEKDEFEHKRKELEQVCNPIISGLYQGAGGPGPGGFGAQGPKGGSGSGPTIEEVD

NRLLLTG (also called NR peptide) [peptide NRLLLTG]
IC50: 11.5 ± 3.8 µM
